Reference: US20090029376
Substitutions are numbered along the chain they refer to.

What was measured:
Experiment in all cases: cleavage_in_vitro
[1] = system: T1, SapI (Saccharopolyspora sp.); settings: NEB4, 37 C
T1 sequence: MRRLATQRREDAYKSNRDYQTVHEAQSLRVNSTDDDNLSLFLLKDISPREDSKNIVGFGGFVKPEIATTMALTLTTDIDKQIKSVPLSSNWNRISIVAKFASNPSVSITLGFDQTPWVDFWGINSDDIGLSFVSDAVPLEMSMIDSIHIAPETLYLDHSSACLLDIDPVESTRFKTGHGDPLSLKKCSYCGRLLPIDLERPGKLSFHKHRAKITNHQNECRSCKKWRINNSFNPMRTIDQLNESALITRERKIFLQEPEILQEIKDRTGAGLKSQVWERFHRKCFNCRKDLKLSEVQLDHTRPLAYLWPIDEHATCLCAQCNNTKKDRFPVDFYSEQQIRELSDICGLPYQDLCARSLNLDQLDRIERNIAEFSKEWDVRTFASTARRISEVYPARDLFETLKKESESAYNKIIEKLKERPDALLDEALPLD

[2] = target: T2, HindIII (Haemophilus influenzae Rd) (UniProt P43870); settings: NEB4, 37 C
T2 sequence: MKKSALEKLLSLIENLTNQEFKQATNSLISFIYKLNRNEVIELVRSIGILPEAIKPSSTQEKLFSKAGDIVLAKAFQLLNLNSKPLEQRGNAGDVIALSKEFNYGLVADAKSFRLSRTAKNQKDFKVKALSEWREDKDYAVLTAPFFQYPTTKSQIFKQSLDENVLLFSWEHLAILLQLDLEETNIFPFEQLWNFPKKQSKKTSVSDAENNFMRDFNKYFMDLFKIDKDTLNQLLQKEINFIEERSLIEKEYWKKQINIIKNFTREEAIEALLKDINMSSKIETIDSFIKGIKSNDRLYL

[3] = target: T3, PstI-HF D91A (Providencia stuartii 164) (UniProt P00640); settings: NEB4, 37 C
T3 sequence: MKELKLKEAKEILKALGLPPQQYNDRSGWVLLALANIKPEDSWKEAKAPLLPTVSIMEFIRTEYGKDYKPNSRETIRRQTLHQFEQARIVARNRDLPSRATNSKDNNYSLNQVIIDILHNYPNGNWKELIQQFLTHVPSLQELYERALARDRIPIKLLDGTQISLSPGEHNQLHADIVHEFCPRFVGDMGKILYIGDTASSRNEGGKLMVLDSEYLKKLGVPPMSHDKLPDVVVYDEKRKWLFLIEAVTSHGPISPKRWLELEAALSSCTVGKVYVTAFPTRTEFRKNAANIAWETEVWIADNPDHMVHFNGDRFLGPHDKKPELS

[4] = target: T4, BamHI-HF E163A/E167T (Bacillus amyloliquefaciens) (UniProt P23940); settings: NEB4, 37 C
T4 sequence: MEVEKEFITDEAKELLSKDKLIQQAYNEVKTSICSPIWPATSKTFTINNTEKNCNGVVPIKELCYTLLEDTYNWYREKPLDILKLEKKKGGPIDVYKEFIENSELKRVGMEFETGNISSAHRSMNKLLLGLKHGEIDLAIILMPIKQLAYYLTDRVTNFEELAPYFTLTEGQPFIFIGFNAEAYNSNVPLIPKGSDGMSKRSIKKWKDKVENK

[5] = system: T5, NcoI-HF A2T/R31A (Nocardia corallina); settings: NEB4, 37 C
T5 sequence: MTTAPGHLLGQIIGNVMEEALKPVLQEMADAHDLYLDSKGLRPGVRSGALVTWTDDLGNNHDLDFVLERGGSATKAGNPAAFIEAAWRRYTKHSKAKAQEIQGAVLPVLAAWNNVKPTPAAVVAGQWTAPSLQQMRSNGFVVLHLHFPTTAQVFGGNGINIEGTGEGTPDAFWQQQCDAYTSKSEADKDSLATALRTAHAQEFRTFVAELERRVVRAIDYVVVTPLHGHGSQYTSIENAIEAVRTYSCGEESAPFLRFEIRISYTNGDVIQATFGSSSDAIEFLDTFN

[6] = system: T6, SspI (Sphaerotilus species); settings: NEB4, 37 C
T6 sequence: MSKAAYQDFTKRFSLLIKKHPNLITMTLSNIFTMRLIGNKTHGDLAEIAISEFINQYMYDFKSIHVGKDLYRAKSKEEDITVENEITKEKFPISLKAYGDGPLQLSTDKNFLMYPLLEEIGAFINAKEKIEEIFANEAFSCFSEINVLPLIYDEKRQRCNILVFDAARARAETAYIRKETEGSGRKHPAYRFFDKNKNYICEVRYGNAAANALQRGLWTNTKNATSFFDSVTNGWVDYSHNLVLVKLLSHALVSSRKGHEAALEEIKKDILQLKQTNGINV

[7] = target: T7, BamHI(E86P) E86P (Bacillus amyloliquefaciens) (UniProt P23940); settings: NEB4, 37 C
T7 sequence: T4 sequence with E86P, A163E, T167E

[8] = system: T8, BsmBI (Bacillus stearothermophilus); settings: NEB4, 55 C
T8 sequence: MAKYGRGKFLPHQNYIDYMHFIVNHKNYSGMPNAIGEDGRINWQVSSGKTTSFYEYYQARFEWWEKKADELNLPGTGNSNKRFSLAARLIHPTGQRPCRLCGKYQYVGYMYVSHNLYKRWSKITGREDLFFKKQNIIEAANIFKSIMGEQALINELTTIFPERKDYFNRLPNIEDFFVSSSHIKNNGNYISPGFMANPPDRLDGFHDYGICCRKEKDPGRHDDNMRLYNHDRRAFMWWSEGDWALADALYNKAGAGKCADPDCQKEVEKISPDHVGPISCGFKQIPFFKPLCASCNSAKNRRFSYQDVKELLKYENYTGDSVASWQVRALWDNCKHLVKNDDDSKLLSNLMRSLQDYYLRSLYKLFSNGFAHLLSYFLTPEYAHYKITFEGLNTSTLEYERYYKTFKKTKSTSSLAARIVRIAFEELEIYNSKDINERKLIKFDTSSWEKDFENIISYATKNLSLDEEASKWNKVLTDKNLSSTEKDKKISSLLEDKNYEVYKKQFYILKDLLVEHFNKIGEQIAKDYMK

[9] = target: T9, ScaI-HF H193A/S201F (Streptomyces caespitosus) (UniProt O52691); settings: NEB2, 37 C
T9 sequence: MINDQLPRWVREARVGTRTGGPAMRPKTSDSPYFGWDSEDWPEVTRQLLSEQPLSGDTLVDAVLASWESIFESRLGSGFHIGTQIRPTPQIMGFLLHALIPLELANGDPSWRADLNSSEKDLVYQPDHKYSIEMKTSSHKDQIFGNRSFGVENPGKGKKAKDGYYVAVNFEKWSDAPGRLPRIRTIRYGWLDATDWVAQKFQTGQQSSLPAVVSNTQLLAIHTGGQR

lambda phage DNA
activity (fidelity index) [1]: 16 | activity (fidelity index) [2]: 32 | activity (fidelity index) [3]: > 2000 | activity (fidelity index) [4]: > 4000 | activity (fidelity index) [5]: > 16000 | activity (fidelity index) [6]: 16 | activity (fidelity index) [7]: > 4000 | activity (fidelity index) [8]: 4 | activity (fidelity index) [9]: 120
